According to patent publication US9814672B2, “Echogenic vehicle for clinical delivery of plasminogen activator and other fibrin-binding therapeutics to thrombi” (priority 2007, dated 2017):
Where two headings read alike, the source gives them in different places.

Target: T1, fibrin (Homo sapiens, UniProt P02671+P02675+P02679)
T1 construct: purchased Calbiochem (EMD Biosciences, Inc., La Jolla, Calif.)
T1 sequence (P02671 36-629 limits assumed): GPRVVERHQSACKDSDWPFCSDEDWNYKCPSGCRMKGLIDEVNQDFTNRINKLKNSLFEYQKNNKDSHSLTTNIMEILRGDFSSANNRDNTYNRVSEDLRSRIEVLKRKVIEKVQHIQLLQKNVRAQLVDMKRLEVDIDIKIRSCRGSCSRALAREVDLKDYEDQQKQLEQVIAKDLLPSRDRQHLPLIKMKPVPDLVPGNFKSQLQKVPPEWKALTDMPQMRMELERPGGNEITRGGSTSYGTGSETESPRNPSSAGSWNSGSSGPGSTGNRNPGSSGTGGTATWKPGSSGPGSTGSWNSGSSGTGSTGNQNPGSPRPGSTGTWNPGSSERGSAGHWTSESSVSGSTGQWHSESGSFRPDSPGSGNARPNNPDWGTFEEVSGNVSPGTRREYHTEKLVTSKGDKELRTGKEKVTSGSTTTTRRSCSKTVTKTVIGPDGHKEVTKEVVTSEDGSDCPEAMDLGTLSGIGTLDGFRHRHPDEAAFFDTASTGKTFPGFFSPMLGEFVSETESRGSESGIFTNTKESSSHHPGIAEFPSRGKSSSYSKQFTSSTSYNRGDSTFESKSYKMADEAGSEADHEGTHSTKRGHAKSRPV
T1 sequence (P02675 45-491 limits assumed): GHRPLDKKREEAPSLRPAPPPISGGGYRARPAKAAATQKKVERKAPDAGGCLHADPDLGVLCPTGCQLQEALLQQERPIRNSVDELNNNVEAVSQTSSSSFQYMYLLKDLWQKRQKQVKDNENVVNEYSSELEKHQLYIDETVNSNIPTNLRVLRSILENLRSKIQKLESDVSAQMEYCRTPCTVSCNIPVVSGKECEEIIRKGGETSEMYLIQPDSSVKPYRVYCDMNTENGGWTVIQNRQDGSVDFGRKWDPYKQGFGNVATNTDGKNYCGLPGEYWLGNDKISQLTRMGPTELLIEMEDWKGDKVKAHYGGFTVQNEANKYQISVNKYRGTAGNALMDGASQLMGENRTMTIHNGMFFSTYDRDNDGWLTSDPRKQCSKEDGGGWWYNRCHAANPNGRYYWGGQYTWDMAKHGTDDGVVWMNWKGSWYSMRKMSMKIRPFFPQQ
T1 sequence (P02679 27-437 isoform P02679-2 limits assumed): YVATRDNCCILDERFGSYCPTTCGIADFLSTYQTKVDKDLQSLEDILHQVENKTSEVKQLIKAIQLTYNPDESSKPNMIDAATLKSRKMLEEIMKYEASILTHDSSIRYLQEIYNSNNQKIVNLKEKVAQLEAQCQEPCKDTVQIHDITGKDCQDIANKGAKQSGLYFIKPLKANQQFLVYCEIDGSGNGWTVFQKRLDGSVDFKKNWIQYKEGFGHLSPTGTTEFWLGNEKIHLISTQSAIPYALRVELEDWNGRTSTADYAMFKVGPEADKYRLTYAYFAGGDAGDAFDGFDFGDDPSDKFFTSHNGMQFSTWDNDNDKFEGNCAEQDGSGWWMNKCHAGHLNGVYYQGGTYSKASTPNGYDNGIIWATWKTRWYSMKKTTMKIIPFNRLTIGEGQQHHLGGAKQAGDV
Assay: Two-stage fibrin pad ELISA, Scatchard and van't Hoff analysis
Type: binding
Settings: for ΔH°: van't Hoff plot
Procedure: Added 100 μl 0.2% BSA/PBS to each well and incubated at 37° C. for 1 hour. All subsequent incubations were also at 37° C. Aspirated the wells and washed the plate 3× with PBS-T. Added Activase dilutions (10, 5, 2.5, 1.25, and 0.625 μg/ml PBS-T) to replicate wells ([…]). Incubated for 2 hours. Removed the contents of each well and pooled all samples within each dilution. Stored pooled samples at 4° C. For tPA-ELIP dilutions (in PBS), the third wash before adding the samples was with PBS. Stored the pooled tPA-ELIP samples in polypropylene tubes.
Added monoclonal anti-tPA capture antibody (Ab) (5 μg/ml coating buffer; […]) to rows B, C, E and G of a fresh microplate. Incubated in a humidified chamber at 4° C. overnight. All subsequent incubations were in humidified chambers at 37° C. at volumes of 50 μl/well, followed by aspiration of wells and 3× washes with PBS-T. Blocked all rows with conjugate buffer for 1 hour. Added tPA standards (50, 25, 12.5, 6.25 and 3.13 ng/ml) and pooled sample dilutions (in PBS-T) in duplicate to sample (B, C, E, G) and background (A, D, F, H) wells. Incubated for 2 hours. Added secondary detection Ab (10 μg sheep anti-tPA/ml 0.1% BSA in PBS-T) to all wells and incubated 1 hour, followed by a conjugate incubation (3,000× diluted with conjugate buffer; 1 hour). Added 50 μl of substrate buffer+500 of substrate (1 tablet/5 ml substrate buffer) to each well. Incubated at 37° for 15 minutes. Immediately quenched with 5 μl of 1M sodium hydroxide/well. Read the plate at 405 nm. Determined net absorbance (A405) by subtracting background OD from sample OD (e.g., B4-A4 or E7-F7).
Calculated the undiluted tPA concentrations of each pooled sample from the standard curve. These represented the free fractions ([F]) of the sample dilutions after equilibrium incubation with fibrin. Obtained the bound concentrations ([B]) by subtracting the free values from the total tPA concentration of the starting dilutions. Prepared Scatchard plots by plotting [B] (x-axis) vs. B/F (y-axis). The slope=−Kassoc and the y-intercept=Kassoc[n], where [n] was the concentration of exposed tPA binding sites on the fibrin pads.
Dilutions of untreated, sham-treated (control) and PPACK-treated (tPA(P)) tPA, as well as tPA(P) conjugated to ELIP (tPA(P)-ELIP), were incubated on replicate fibrin pads, prepared in microplate wells according to a modification of the method of Edgell et al. (1996). Human thrombin was added to a solution of 0.5 mg/ml of human fibrinogen in 0.02M phosphate-buffered saline, pH 7.4 (PBS), to a final concentration of 0.125 IU thrombin/ml; 100 μl of this solution was immediately added to each well and incubated at 37° C. for 45 minutes, followed by overnight drying of the plate at 45° C. After incubation with 100 μl/well of 0.2% BSA in PBS for 1 hour, samples (100 μl/well) were incubated for 2 hours at 37° C. For thermodynamic analyses, this incubation was performed at three temperatures (5, 24 and 37° C.). In order to determine the concentration of free tPA remaining in solution after incubation of tPA with fibrin, from which the concentration of bound tPA could be calculated for Scatchard analysis, the contents of duplicate wells were recovered, pooled and subsequently assayed for immunoreactive tPA in a standard quantitative sandwich ELISA.
Briefly, Nunc MaxiSorp microtiter plates were coated with 5 μg/ml of a monoclonal anti-tPA capture antibody (Ab) in 0.05M sodium bicarbonate, pH 9.6, overnight at 4° C. All incubation volumes were 50 μl/well. One-half of wells were left uncoated for determination of nonspecific binding. After aspirating well contents, all wells were blocked with conjugate buffer (1% BSA in 0.05M Tris buffer, pH 8.0, with 0.02% sodium azide) for 1 hour. From this point, all incubations were at 37° C. Each incubation was followed by aspiration of well contents and washes (3×) with PBS-T (PBS with 0.05% Tween 20). […]

tPA: Recombinant tissue-plasminogen activator (Activase®, Genentech Inc.), used as the thrombolytic agent [reference compound]
other fibrin-binding affinity in the presence of 50 mM EACA (50 mM EACA): non-measurable level
Kd (50 mM EACA, read-out: remaining fibrin-binding affinity in the presence of 50 mM EACA): 32.9 nM
Kd (37° C., SE, n=3, read-out: High-affinity interaction dissociation constant (KD)): 5.81 ± 4.04 nM
Kd (37° C., read-out: Low-affinity interaction KD): 30.4 ± 14.7 nM
Kassoc 1 (Example 12, 37° C.): 3.13e+08 M⁻¹
Kassoc 2 (Example 12, 37° C.): 3.53e+07 M⁻¹
Kd (Example 12, 37° C., PBS-T, read-out: higher affinity on Scatchard plot): 3.19 nM
Kd (Example 12, 37° C., PBS-T, read-out: lower affinity on Scatchard plot): 28.3 nM
High affinity (Scatchard plot) (representative plot, PBS-T, 37° C., r=0.883): 2e+09 M⁻¹
low affinity (Scatchard plot) (representative plot, PBS-T, 37° C., r=0.904): 1.95e+08 M⁻¹

tPA(P): Human recombinant tPA (Activase®) irreversibly inhibited with D-phe-L-pro-L-arg-chloromethyl ketone (PPACK)
ΔS° (High affinity): −33.8 cal/mole°
Kassoc (High affinity, 278 K): 4.67e+09 M⁻¹
ΔG° (High affinity, 278 K): -12.3 kcal/mol
Kassoc (High affinity, 297 K): 5.04e+08 M⁻¹
ΔG° (High affinity, 297 K): -11.8 kcal/mol
Kassoc (High affinity, 310 K): 7.65e+07 M⁻¹
ΔG° (High affinity, 310 K): -11.2 kcal/mol
ΔH° (High affinity): -21.7 kcal/mol
ΔS° (Low affinity): −9.93 cal/mole°
Kassoc (Low affinity, 278 K): 5.33e+08 M⁻¹
ΔG° (Low affinity, 278 K): -11.1 kcal/mol
Kassoc (Low affinity, 297 K): 1.2e+08 M⁻¹
ΔG° (Low affinity, 297 K): -11.0 kcal/mol
Kassoc (Low affinity, 310 K): 3.91e+07 M⁻¹
ΔG° (Low affinity, 310 K): -10.8 kcal/mol
ΔH° (Low affinity): -13.9 kcal/mol
Kd (S.E., n=3, read-out: High-Affinity KD @ 37° C.): 10.4 ± 1.4 nM
Kd (abstract of Example 15, read-out: fibrin-binding KD, higher affinity, after PPACK inactivation): ~2 nM
Kd (abstract of Example 15, read-out: fibrin-binding KD, lower affinity, after PPACK inactivation): 33 nM
